Patent US20210388102A1 (IMMUNOGEN, published 2021)
Residue numbers refer to the chain shown, from its start. Numbers in names are those of the source.

T1: human ADAM9 (huADAM9) on cells (human, UniProt Q13443 206-819)
T1 sequence: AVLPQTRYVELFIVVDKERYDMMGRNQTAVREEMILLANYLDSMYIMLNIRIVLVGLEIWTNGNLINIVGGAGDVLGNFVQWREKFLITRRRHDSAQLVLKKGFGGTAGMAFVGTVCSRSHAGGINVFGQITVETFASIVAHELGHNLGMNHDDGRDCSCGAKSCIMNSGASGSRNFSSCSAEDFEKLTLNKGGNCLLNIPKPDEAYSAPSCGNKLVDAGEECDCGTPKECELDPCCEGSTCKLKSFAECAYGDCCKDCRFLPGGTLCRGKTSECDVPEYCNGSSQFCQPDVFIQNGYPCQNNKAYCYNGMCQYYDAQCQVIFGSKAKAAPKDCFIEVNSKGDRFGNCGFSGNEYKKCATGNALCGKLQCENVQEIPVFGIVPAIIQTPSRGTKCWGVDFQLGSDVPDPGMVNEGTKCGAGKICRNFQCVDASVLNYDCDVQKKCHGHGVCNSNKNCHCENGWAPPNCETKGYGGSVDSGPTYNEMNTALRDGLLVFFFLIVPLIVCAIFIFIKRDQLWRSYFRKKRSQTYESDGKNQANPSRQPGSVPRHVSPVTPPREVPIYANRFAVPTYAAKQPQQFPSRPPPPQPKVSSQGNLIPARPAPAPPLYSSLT

T2: cynomolgus monkey ADAM9 (cynoADAM9) on cells (cynomolgus monkey, UniProt Q13443 206-819 (human entry))
T2 construct: also called Cho-K/cynoADAM9 clone 2; Cho-K/cynoADAM9 clone #16
T2 chain: T1 sequence with V69A, Q130H, G421D, V441I, S521R, G546V, A569P

T3: His-tagged soluble human ADAM9 (shADAM9-His) (human, UniProt Q13443 206-697)
T3 construct: Contains an extracellular portion of human ADAM9; also called huADAM9-His; His peptide-tagged soluble huADAM9
T3 sequence: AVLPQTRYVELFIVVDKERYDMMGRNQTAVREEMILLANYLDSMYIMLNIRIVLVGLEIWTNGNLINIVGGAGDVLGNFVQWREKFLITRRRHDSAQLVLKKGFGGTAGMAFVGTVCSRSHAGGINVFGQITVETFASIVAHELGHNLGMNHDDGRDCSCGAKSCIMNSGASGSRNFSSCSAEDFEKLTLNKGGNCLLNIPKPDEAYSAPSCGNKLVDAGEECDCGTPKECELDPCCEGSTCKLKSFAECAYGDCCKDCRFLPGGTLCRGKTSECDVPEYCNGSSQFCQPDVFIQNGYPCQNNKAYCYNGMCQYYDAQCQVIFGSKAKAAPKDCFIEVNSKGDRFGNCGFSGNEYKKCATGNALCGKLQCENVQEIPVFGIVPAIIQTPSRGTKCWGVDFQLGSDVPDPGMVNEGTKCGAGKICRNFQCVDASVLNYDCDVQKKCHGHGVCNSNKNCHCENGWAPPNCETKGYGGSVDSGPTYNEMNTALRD

B1: hMAB-A(2.2)-DGN549 (antibody, human IgG1, kappa, V domains shown)
VH: EVQLVESGGGLVKPGGSLRLSCAASGFTFSSYWMHWVRQAPGKGLEWVGEIIPIFGHTNYNEKFKSRFTISLDNSKNTLYLQMGSLRAEDTAVYYCARGGYYYYGSRDYFDYWGQGTTVTVSS
VL: DIVMTQSPDSLAVSLGERATISCKASQSVDYSGDSYMNWYQQKPGQPPKLLIYAASDLESGIPARFSGSGSGTDFTLTISSLEPEDFATYYCQQSHEDPFTFGQGTKLEIKR
modifications: lysine-linked DGN549, sites not given; DGN549-L (compound D2) linked to lysine residues of the antibody, sites not given; average 2.7 mol DGN549/mol antibody
B2: hMAB-A(2.2)-sSPDB-DM4 (antibody, human IgG1, kappa, V domains shown)
VH: B1 VH
VL: B1 VL
modifications: lysine-linked DM4, sites not given; DM4 linked through sulfo-SPDB to lysine residues of the antibody, sites not given; average 3.2 mol DM4/mol antibody
notes: also called huMAB-A(2.2)-sSPDB-DM4
B3: hMAB-A(2I.2)-S442C-DGN549 (antibody)
heavy: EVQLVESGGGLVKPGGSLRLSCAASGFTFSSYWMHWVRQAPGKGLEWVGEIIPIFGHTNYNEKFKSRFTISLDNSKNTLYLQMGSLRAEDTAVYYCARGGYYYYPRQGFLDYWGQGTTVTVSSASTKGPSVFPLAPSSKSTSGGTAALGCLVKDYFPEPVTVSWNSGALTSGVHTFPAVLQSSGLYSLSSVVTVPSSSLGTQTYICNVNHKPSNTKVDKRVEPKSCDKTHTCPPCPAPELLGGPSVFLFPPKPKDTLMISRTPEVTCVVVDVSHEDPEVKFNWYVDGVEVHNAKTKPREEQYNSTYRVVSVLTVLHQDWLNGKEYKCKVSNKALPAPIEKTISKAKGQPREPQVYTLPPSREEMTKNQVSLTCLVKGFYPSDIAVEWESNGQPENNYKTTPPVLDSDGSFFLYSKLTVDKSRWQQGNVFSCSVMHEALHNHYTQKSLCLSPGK
light: DIVMTQSPDSLAVSLGERATISCKASQSVDYSGDSYMNWYQQKPGQPPKLLIYAASDLESGIPARFSGSGSGTDFTLTISSLEPEDFATYYCQQSHEDPFTFGQGTKLEIKRTVAAPSVFIFPPSDEQLKSGTASVVCLLNNFYPREAKVQWKVDNALQSGNSQESVTEQDSKDSTYSLSSTLTLSKADYEKHKVYACEVTHQGLSSPVTKSFNRGEC
modifications: DGN549-C (compound D5) on the engineered Cys S442C (EU index; 6th to the last residue of SEQ ID NO 142 when X is lysine); average 1.9 mol DGN549/mol antibody
notes: also called huMAB-A(2I.2)-S442C-DGN549
B4: hMAB-A(2C.2)-DGN549 (antibody, human IgG1, kappa, V domains shown)
VH: B1 VH with G105P, S106R, R107F, D108G, Y109W, F110L
VL: B1 VL
modifications: lysine-linked DGN549, sites not given; DGN549-L (compound D2) linked to lysine residues of the antibody, sites not given; average 2.8 mol DGN549/mol antibody
B5: hMAB-A(2C.2)-sSPDB-DM4 (antibody, human IgG1, kappa, V domains shown)
VH: B1 VH with G105P, S106R, R107F, D108G, Y109W, F110L
VL: B1 VL
modifications: lysine-linked DM4, sites not given; DM4 linked through sulfo-SPDB to lysine residues of the antibody, sites not given; average 3.2 mol DM4/mol antibody
B6: hMAB-A(2I.2)-DGN549 (antibody, human IgG1, kappa)
heavy: not shown
light: B3 light
modifications: lysine-linked DGN549, sites not given; DGN549-L (compound D2) linked to lysine residues of the antibody, sites not given; average 2.8 mol DGN549/mol antibody
B7: chMAB-A-sSPDB-DM4 (antibody, V domains shown)
VH: QVQLQQPGAELVKPGASVKLSCKASGYTFTSYWMHWVKQRPGQGLEWIGEIIPINGHTNYNEKFKSKATLTLDKSSSTAYMQLSSLASEDSAVYYCARGGYYYYGSRDYFDYWGQGTTLTVSS
VL: DIVLTQSPASLAVSLGQRATISCKASQSVDYDGDSYMNWYQQIPGQPPKLLIYAASDLESGIPARFSGSGSGTDFTLNIHPVEEEDAATYYCQQSHEDPFTFGGGTKLEIK
modifications: lysine-linked DM4, sites not given; DM4 linked through sulfo-SPDB to lysine residues of the antibody, sites not given; average 3.4 mol DM4/mol antibody
B8: chMAB-A-DGN549 (antibody, V domains shown)
VH: B7 VH
VL: B7 VL
modifications: lysine-linked DGN549, sites not given; DGN549-L (compound D2) linked to lysine residues of the antibody, sites not given; average 2.7 mol DGN549/mol antibody
B9: hMAB-A (2B.2) (antibody, V domains shown)
VH: B1 VH with G105I, S106G, R107K, D108G, Y109V, F110L
VL: DIVMTQSPDSLAVSLGERATISCKASQSVDYSGDSYMNWYQQKPGQPPKLLIYAASDLESGIPARFSGSGSGTDFTLTISSLEPEDFATYYCQQSHEDPFTFGQGTKLEIK
notes: also called MAB-A VH(2B); MAB-A VH(2B.2)
B10: hMAB-A (2D.2) (antibody, V domains shown)
VH: B1 VH with G105T, S106G, R107K, D108G, Y109V, F110L
VL: B9 VL
notes: also called MAB-A VH(2D); MAB-A VH(2D.2)

Molecular target: T1, human ADAM9 (huADAM9) on cells
Experiment: cell-based or functional assay

Binder	Fold-specificity (IC50 control ADC/IC50 anti-ADAM9 ADC), A498 [fold]	Fold-specificity (IC50 control ADC/IC50 anti-ADAM9 ADC), DLD-1 [fold]	Fold-specificity (IC50 control ADC/IC50 anti-ADAM9 ADC), DU145 [fold]	Fold-specificity (IC50 control ADC/IC50 anti-ADAM9 ADC), HPAF2 [fold]	Fold-specificity (IC50 control ADC/IC50 anti-ADAM9 ADC), HS578T [fold]	Fold-specificity (IC50 control ADC/IC50 anti-ADAM9 ADC), IGROV1 [fold]	Fold-specificity (IC50 control ADC/IC50 anti-ADAM9 ADC), KATO III [fold]	Fold-specificity (IC50 control ADC/IC50 anti-ADAM9 ADC), NCI-H1703 [fold]	In Vitro Cytotoxicity (IC50 nM), A498 [nM]	In Vitro Cytotoxicity (IC50 nM), DLD-1 [nM]
B1	> 1000	> 1000	> 1000	> 1000	> 1000	> 1000	> 1000	> 1000	0.001	0.01
B2	27	9	25	9	16	3	5	152	0.119	2.73
B3	> 1000	> 1000	> 1000	> 1000	646	> 1000	> 1000	> 1000	0.004	0.045

Same assay, conditions: not given

Binder	In Vitro Cytotoxicity (IC50 nM), DU145 [nM]	In Vitro Cytotoxicity (IC50 nM), HPAF2 [nM]	In Vitro Cytotoxicity (IC50 nM), HS578T [nM]	In Vitro Cytotoxicity (IC50 nM), IGROV1 [nM]	In Vitro Cytotoxicity (IC50 nM), KATO III [nM]	In Vitro Cytotoxicity (IC50 nM), NCI-H1703 [nM]
B1	0.002	0.043	0.009	0.001	0.031	0.002
B2	0.57	0.622	0.119	4.08	1.15	0.024
B3	0.004	0.115	0.017	0.003	0.065	0.004

Molecular target: T2, cynomolgus monkey ADAM9 (cynoADAM9) on …
Experiment: FACS, 300-19 cells expressing cynomolgus ADAM9
Experimental: (§1) To evaluate the consequence of conjugation on antigen binding, the relative binding affinity of each anti-ADAM9 immunoconjugate and its respective unconjugated antibody to ADAM9 was determined by FACS analysis on 300-19 cells ectopically-expressing either human ADAM9 or cynomolgus ADAM9. Briefly, the ADAM9-expressing 300-19 cells were incubated with dilution series of anti-ADAM9 antibodies or immunoconjugates for 30 min @ 4° C. in FACS buffer (PBS, 0.1% BSA, 0.01% NaN₃), Samples were then washed and incubated with fluorescently-labeled secondary antibody for 30 minutes at 4° C. The normalized mean of fluorescence intensity at each concentration was plotted and the EC50 of binding was calculated using a nonlinear regression analysis (GraphPad Prims 4.0).

Binder	EC50 [nM]
B1	22.3
B2	13.3
B4	5.6
B5	4.4
B3	6.2
B6	6.6
B7	275
B8	153

Molecular target: T2, cynomolgus monkey ADAM9 (cynoADAM9) on …
Experiment: FACS, EC50 on 300-19 cynoADAM9 cells over EC50 on 300-19 huADAM9 cells
Experimental: as §1

Binder	cyno/human (ratio of EC50)
B1	14
B2	12
B4	3
B5	3
B3	2
B6	3
B7	290
B8	123

Molecular target: T3, His-tagged soluble human ADAM9 …
Experiment: SPR (BIACORE), antibody captured, huADAM9-His in flow
Experimental: The kinetics of binding were determined via BIACORE® analysis binding (normalized 1:1 Langmuir binding model).

Binder	Kd [nM]	koff [s⁻¹]	kon [M⁻¹ s⁻¹]
B9	0.6	0.00039	610000
B10	0.8	0.00058	690000

Molecular target: T1, human ADAM9 (huADAM9) on cells
Experiment: FACS, 300-19 cells expressing human ADAM9
Experimental: as §1

Binder	EC50 [nM]
B1	1.55
B2	1.11
B4	1.99
B5	1.5
B3	2.49
B6	2.25
B7	0.95
B8	1.24
